# Results: article PMC3135484 (Molecular Biology of the Cell, 2011)
# B1: SNARE complex assembled on GST-Vam7 SD with Vam3, Vti1 and Ykt6 (complex)
# chain 1: PSTEVTRRAALLRSLLKECDDIGTANIAQDRGRLLGVATSDNSSTTEVQGRTNNDLQQGQMQMVRDQEQELVALHRIIQAQRGLALEMNEELQTQNELLTALEDDVDNTGRRLQIANKKARHFNNSA
# chain 2: MSFFDIEAQSSKGNSQQEPQFSTNQKTKELSNLIETFAEQSRVLEKECTKIGSKRDSKELRYKIETELIPNCTSVRDKIESNILIHQNGKLSADFKNLKTKYQSLQQSYNQRKSLFPLKTPISPGTSKERKDIHPRTEAVRQDPESSYISIKVNEQSPLLHNEGQHQLQLQEEQEQQQQGLSQEELDFQTIIHQERSQQIGRIHTAVQEVNAIFHQLGSLVKEQGEQVTTIDENISHLHDNMQNANKQLTRADQHQRDRNKCGK
# chain 3: MSSLLISYESDFKTTLEQAKASLAEAPSQPLSQRNTTLKHVEQQQDELFDLLDQMDVEVNNSIGDASERATYKAKLREWKKTIQSDIKRPLQSLVDSGDRDRLFGDLNASNIDDDQRQQLLSNHAILQKSGDRLKDASRIANETEGIGSQIMMDLRSQRETLENARQTLFQADSYVDKSIKTLKTMTRR
# chain 4: MRIYYIGVFRSGGEKALELSEVKDLSQFGFFERSSVGQFMTFFAETVASRTGAGQRQSIEEGNYIGHVYARSEGICGVLITDKEYPVRPAYTLLNKILDEYLVAHPKEEWADVTETNDALKMKQLDTYISKYQDPSQADAIMKVQQELDETKIVLHKTIENVLQRGEKLDNLVDKSESLTASSKMFYKQAKKSNSCCIIM
# B2: Q-SNARE complex assembled on GST-Vam7 SD with Vam3 and Vti1 (complex)
# chain 1: PSTEVTRRAALLRSLLKECDDIGTANIAQDRGRLLGVATSDNSSTTEVQGRTNNDLQQGQMQMVRDQEQELVALHRIIQAQRGLALEMNEELQTQNELLTALEDDVDNTGRRLQIANKKARHFNNSA
# chain 2: MSFFDIEAQSSKGNSQQEPQFSTNQKTKELSNLIETFAEQSRVLEKECTKIGSKRDSKELRYKIETELIPNCTSVRDKIESNILIHQNGKLSADFKNLKTKYQSLQQSYNQRKSLFPLKTPISPGTSKERKDIHPRTEAVRQDPESSYISIKVNEQSPLLHNEGQHQLQLQEEQEQQQQGLSQEELDFQTIIHQERSQQIGRIHTAVQEVNAIFHQLGSLVKEQGEQVTTIDENISHLHDNMQNANKQLTRADQHQRDRNKCGK
# chain 3: MSSLLISYESDFKTTLEQAKASLAEAPSQPLSQRNTTLKHVEQQQDELFDLLDQMDVEVNNSIGDASERATYKAKLREWKKTIQSDIKRPLQSLVDSGDRDRLFGDLNASNIDDDQRQQLLSNHAILQKSGDRLKDASRIANETEGIGSQIMMDLRSQRETLENARQTLFQADSYVDKSIKTLKTMTRR
# B3: His-tagged Vti1 (1-189, ΔTMD) (domain or fragment)
# chain: MSSLLISYESDFKTTLEQAKASLAEAPSQPLSQRNTTLKHVEQQQDELFDLLDQMDVEVNNSIGDASERATYKAKLREWKKTIQSDIKRPLQSLVDSGDRDRLFGDLNASNIDDDQRQQLLSNHAILQKSGDRLKDASRIANETEGIGSQIMMDLRSQRETLENARQTLFQADSYVDKSIKTLKTMTRR
# B4: His-tagged Ykt6 (1-200) (natural protein)
# chain: MRIYYIGVFRSGGEKALELSEVKDLSQFGFFERSSVGQFMTFFAETVASRTGAGQRQSIEEGNYIGHVYARSEGICGVLITDKEYPVRPAYTLLNKILDEYLVAHPKEEWADVTETNDALKMKQLDTYISKYQDPSQADAIMKVQQELDETKIVLHKTIENVLQRGEKLDNLVDKSESLTASSKMFYKQAKKSNSCCIIM
# B5: minimal SNARE complex assembled on GST-Vam7 SD with Vam3ΔN, Vti1 and Ykt6 (complex)
# chain 1: PSTEVTRRAALLRSLLKECDDIGTANIAQDRGRLLGVATSDNSSTTEVQGRTNNDLQQGQMQMVRDQEQELVALHRIIQAQRGLALEMNEELQTQNELLTALEDDVDNTGRRLQIANKKARHFNNSA
# chain 2: ESSYISIKVNEQSPLLHNEGQHQLQLQEEQEQQQQGLSQEELDFQTIIHQERSQQIGRIHTAVQEVNAIFHQLGSLVKEQGEQVTTIDENISHLHDNMQNANKQLTRADQHQRDRNKCGK
# chain 3: MSSLLISYESDFKTTLEQAKASLAEAPSQPLSQRNTTLKHVEQQQDELFDLLDQMDVEVNNSIGDASERATYKAKLREWKKTIQSDIKRPLQSLVDSGDRDRLFGDLNASNIDDDQRQQLLSNHAILQKSGDRLKDASRIANETEGIGSQIMMDLRSQRETLENARQTLFQADSYVDKSIKTLKTMTRR
# chain 4: MRIYYIGVFRSGGEKALELSEVKDLSQFGFFERSSVGQFMTFFAETVASRTGAGQRQSIEEGNYIGHVYARSEGICGVLITDKEYPVRPAYTLLNKILDEYLVAHPKEEWADVTETNDALKMKQLDTYISKYQDPSQADAIMKVQQELDETKIVLHKTIENVLQRGEKLDNLVDKSESLTASSKMFYKQAKKSNSCCIIM
# B6: GST-tagged Vam7 PX domain (1-129) (domain or fragment)
# chain: MAANSVGKMSEKLRIKVDDVKINPKYVLYGVSTPNKRLYKRYSEFWKLKTRLERDVGSTIPYDFPEKPGVLDRRWQRRYDDPEMIDERRIGLERFLNELYNDRFDSRWRDTKIAQDFLQLSKPNVSQEK
# B7: GST-tagged Vam7 (1-316) (natural protein)
# chain: MAANSVGKMSEKLRIKVDDVKINPKYVLYGVSTPNKRLYKRYSEFWKLKTRLERDVGSTIPYDFPEKPGVLDRRWQRRYDDPEMIDERRIGLERFLNELYNDRFDSRWRDTKIAQDFLQLSKPNVSQEKSQQHLETADEVGWDEMIRDIKLDLDKESDGTPSVRGALRARTKLHKLRERLEQDVQKKSLPSTEVTRRAALLRSLLKECDDIGTANIAQDRGRLLGVATSDNSSTTEVQGRTNNDLQQGQMQMVRDQEQELVALHRIIQAQRGLALEMNEELQTQNELLTALEDDVDNTGRRLQIANKKARHFNNSA
# B8: GST-tagged Vam3 (Vam3 1-260, ΔTMD) (domain or fragment)
# chain: MSFFDIEAQSSKGNSQQEPQFSTNQKTKELSNLIETFAEQSRVLEKECTKIGSKRDSKELRYKIETELIPNCTSVRDKIESNILIHQNGKLSADFKNLKTKYQSLQQSYNQRKSLFPLKTPISPGTSKERKDIHPRTEAVRQDPESSYISIKVNEQSPLLHNEGQHQLQLQEEQEQQQQGLSQEELDFQTIIHQERSQQIGRIHTAVQEVNAIFHQLGSLVKEQGEQVTTIDENISHLHDNMQNANKQLTRADQHQRDRN
# Tests used:
# Test in all cases: pull-down
# [1] = target: HOPS (homotypic fusion and protein sorting) complex (yeast (S. cerevisiae), UniProt P38959;Q07468;P20795;P12868;Q03308;P27801)
# [2] = target: B8
# [3] = target: T1, Vps16 (individual HOPS subunit, TAP-purified) (yeast (S. cerevisiae), UniProt Q03308 1-798)
# T1 sequence: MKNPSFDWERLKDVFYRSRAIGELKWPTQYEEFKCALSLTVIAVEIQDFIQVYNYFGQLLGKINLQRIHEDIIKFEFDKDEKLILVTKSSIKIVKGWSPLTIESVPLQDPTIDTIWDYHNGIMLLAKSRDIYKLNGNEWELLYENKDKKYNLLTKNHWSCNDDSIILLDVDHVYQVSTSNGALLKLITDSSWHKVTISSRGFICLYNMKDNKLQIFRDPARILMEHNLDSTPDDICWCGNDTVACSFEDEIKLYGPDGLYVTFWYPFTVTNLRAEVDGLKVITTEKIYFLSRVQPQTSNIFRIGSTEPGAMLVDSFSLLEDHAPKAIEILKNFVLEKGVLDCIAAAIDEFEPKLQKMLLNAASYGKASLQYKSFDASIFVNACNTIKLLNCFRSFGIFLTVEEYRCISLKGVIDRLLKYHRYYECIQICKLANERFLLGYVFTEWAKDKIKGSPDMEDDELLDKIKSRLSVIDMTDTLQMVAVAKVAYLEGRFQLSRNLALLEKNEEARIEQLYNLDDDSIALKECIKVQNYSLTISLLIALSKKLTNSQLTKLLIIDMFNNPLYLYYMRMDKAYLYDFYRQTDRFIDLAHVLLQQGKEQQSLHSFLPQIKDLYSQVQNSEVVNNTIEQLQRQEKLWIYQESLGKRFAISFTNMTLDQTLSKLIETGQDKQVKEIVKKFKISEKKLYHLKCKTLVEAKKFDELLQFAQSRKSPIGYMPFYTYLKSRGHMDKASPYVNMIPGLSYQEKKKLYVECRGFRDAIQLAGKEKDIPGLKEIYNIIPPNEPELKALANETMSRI
# [4] = target: T2, His-tagged Vam7 (1-316) (S. cerevisiae, UniProt P32912 1-316)
# T2 sequence: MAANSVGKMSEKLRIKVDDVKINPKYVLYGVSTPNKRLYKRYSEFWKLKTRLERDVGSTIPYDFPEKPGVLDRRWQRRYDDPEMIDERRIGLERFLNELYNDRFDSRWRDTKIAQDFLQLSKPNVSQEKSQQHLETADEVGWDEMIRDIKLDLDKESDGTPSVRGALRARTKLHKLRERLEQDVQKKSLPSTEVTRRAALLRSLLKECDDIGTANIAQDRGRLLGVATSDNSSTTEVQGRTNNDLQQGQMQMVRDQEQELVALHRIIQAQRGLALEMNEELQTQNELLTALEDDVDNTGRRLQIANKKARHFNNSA
binder,measurement,setting,value
B1,binding result,[1],binds
B2,binding result,[1],binds
B3,binding result,[2],binds
B4,binding result,[2],binds
B5,binding result,[1],binds
B6,binding result,[1],binds
B7,binding result,[1],binds
same,binding result,[3],binds
B8,binding result,[4],binds
